In US20170029481A1 (EPODOSE, published 2017):
Read-outs that look alike come from different tables or passages of the source. Where no end group is shown, it is not given here. [ ]: non-standard residue; d: D form. hLeu = CC(C)CC[C@H](N)C(=O)O; βAla = NCCC(=O)O

T1: erythropoietin receptor, human recombinant (NSO cells) (human) (UniProt P19235)
T1 sequence (looked up): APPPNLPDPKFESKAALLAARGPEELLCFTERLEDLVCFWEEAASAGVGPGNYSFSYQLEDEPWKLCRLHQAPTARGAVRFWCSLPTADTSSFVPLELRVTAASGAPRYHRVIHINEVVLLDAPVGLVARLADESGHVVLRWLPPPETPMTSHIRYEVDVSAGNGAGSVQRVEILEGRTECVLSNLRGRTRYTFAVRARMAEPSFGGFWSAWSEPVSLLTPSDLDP

T2: erythropoietin receptor, human recombinant (NSO cells) (human, UniProt P19235 25-250, limits assumed)
T2 construct: also called EPOR; EPO receptor
T2 sequence (looked up): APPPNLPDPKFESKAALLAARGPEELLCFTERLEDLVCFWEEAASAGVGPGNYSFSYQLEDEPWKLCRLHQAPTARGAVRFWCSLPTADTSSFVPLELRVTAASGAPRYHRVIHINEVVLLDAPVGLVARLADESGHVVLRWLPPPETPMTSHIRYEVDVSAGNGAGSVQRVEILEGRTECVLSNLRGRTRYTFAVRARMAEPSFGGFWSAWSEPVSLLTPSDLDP


Columns and labels:
Test in all cases: radioligand binding, displacement of [125I]EPO
[1] = molecular target: T1, erythropoietin receptor, human recombinant (NSO cells) (human)
[2] = molecular target: T2, erythropoietin receptor, human …
[3] = molecular target: T2, erythropoietin receptor, human …; remark: listed apart in the source
[4] = molecular target: T2, erythropoietin receptor, human …; remark: listed apart in the source

| Ki [1] | IC50 [2] | Ki [2] | Ki (AC-0005-002)/Ki [2] | further results | Binder |
| --- | --- | --- | --- | --- | --- |
| 17 nM |  |  |  |  | Ac-NYLRMFWVRP (peptide, part only; not given: Bridge, linker and tail moieties, not shown: small tags and cut ends, also: two linked chains, linker and second chain not given here) [EPO mimetic 6. (N-End AcNYL, Loop RMFWV, Mid RP)] |
|  | 1300 nM | 615 nM | 6.3 |  | GGNYLCRMGPITWVCKPQGG (not fully specified; cysteine pairing not given here, Structure only as drawing CHEM-US-00003; also called compound 001) [AC-0005-001] |
| 23 nM |  |  |  |  | Ac-NYLRM[hLeu]WVRP (peptide, part only; not given: Bridge, linker and tail moieties, not shown: small tags and cut ends, also: two linked chains, linker and second chain not given here) [EPO mimetic 9. (N-End AcNYL, Loop RMhomoLWV, Mid RP)] |
| 27 nM |  |  |  |  | Ac-NYLRM[βAla]WVKP (peptide, part only; not given: Bridge, linker and tail moieties, not shown: small tags and cut ends, also: two linked chains, linker and second chain not given here) [EPO mimetic 3. (N-End AcNYL, Loop RMβAWV, Mid KP)] |
| 34 nM |  |  |  |  | Ac-NYLRMLWVRP (peptide, part only; not given: Bridge, linker and tail moieties, not shown: small tags and cut ends, also: two linked chains, linker and second chain not given here) [EPO mimetic 8. (N-End AcNYL, Loop RMLWV, Mid RP)] |
| 22 nM |  |  |  |  | Ac-NYLRMGWVKP (peptide, part only; not given: Bridge, linker and tail moieties, not shown: small tags and cut ends, also: two linked chains, linker and second chain not given here) [EPO mimetic 2. (N-End AcNYL, Loop RMGWV, Mid KP)] |
|  | 8170 nM | 3870 nM | 1 |  | GGLYACHMGPITAVCQPQGG (not fully specified; cysteine pairing not given here, Structure only as drawing CHEM-US-00004; also called compound 002) [AC-0005-002] |
|  | 265 nM | 126 nM | 31 |  | LYACHMGPITAVCQP (not fully specified; cysteine pairing not given here, Structure only as drawing CHEM-US-00006; also called compound 004) [AC-0005-004] |
| 44 nM |  |  |  |  | Ac-NYLRMGWVRP (peptide, part only; not given: Bridge, linker and tail moieties, not shown: small tags and cut ends, also: two linked chains, linker and second chain not given here) [EPO mimetic 4. (N-End AcNYL, Loop RMGWV, Mid RP)] |
|  | 119 nM | 56 nM | 69 | IC50 [3]: 171 nM; Ki [3]: 81 nM; Ki (AC-0005-002)/Ki [3]: 48; IC50 [4]: 164 nM; Ki [4]: 78 nM; Ki (AC-0005-002)/Ki [4]: 0.041 | NYLCRMGPITWVCKP (not fully specified; cysteine pairing not given here, Structure only as drawing CHEM-US-00005; also called compound 003; Control 2: AC-0005-003) [AC-0005-003] |
| 9.6 nM |  |  |  |  | [DesaminoY]LRMPWVKP (peptide, part only; not given: Bridge, linker and tail moieties, not shown: small tags and cut ends, also: two linked chains, linker and second chain not given here) [EPO mimetic 15. (N-End Desamino YL, Loop RMPWV, Mid KP)] |
